Assay [1] concerns the target T1, mouse KRT14 (Keratin, type I cytoskeletal 14) as expressed by murine ID8 ovarian cancer cells (Mus musculus (Mouse), UniProt Q61781 1-484).
T1 construct: whole, on cells; also called non-human protein
T1 sequence (looked up): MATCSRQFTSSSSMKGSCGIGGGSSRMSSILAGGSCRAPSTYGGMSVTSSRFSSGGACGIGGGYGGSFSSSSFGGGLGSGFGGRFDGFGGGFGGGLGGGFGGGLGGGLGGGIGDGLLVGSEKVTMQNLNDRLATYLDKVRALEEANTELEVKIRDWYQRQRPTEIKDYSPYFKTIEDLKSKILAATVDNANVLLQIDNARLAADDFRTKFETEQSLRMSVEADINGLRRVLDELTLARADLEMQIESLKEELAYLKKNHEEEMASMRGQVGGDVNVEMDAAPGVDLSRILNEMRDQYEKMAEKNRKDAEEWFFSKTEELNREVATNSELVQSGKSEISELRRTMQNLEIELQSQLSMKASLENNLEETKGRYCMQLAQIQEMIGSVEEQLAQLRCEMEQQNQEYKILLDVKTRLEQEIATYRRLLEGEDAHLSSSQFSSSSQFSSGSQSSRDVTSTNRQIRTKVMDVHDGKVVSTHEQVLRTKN
The assay can be described thus: flow cytometry of cardiac blood stained with anti-CD45 and mAb AN-17. The method, then: Cardiac blood was taken from mice bearing 12-week old ID8 iRFP720+ epithelial ovarian tumours and stained using anti-CD45 and mAb AN-17. Circulating ID8 tumour cells were identified as KRT14+CD45− cells and confirmed by iRFP720+ status. iRFP720+ID8 cells spiked into blood was used as a positive control.
(§1) Flow cytometry was carried out according to standard protocols (PMID: 30602661), with data acquired using a BD LSRFortessa X-20 (BD Biosciences) and analysed using FlowJo software v10.5.0 (BD Biosciences). Samples assessed for KRT14+ cell populations included OVCAR3, CAOV4, ID8 mouse ovarian cancer cells, ascites-derived ovarian cancer cells derived from a clinical specimen (designated #3.1937-07) and cardiac blood from a mice bearing 12-week old epithelial ovarian tumours. For cell lines, 1×10⁶ cells per cell line were incubated with either mAb AN-17 (1:200 dilution) or a commercially available anti-KRT14 polyclonal antibody (Sigma SAB4501657; 1:50 dilution) as a positive control for 45 mins in non-immune serum at room temperature. The secondary antibodies, goat anti-mouse Alexa647 (mAb AN-17) or goat anti-rabbit IgG Alexa 488 (commercial Ab), were diluted 1:500 and incubated for 30 minutes. For blood samples. 2×10⁶ cells were incubated with an Alexa Fluor® 488-conjugated mAb AN-17 antibody for 45 minutes. […]
In general terms: In flow cytometry, cells or beads pass a laser one at a time.

Assay [2] deals with T2, human KRT14 (Keratin, type I cytoskeletal 14) as expressed by human cancer cells and tumour tissue (Homo sapiens (Human), UniProt P02533 1-472).
T2 construct: whole, on cells; Probed on intact cells (surface-exposed N-terminal portion), on permeabilized cells and in FFPE tissue sections; also called K14; Keratin-14
T2 sequence (looked up): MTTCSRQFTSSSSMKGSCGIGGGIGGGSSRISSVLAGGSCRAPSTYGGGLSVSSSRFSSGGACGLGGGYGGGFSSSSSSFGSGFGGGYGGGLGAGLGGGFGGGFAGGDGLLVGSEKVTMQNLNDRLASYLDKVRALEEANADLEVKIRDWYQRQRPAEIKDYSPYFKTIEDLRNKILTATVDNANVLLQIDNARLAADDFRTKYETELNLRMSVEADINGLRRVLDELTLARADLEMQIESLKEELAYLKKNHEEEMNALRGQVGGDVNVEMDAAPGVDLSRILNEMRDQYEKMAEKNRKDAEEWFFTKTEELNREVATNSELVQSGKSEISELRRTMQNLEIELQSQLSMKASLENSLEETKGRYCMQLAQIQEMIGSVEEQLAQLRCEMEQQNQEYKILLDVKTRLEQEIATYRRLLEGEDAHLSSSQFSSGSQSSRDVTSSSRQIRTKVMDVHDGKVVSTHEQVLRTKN
As to the kind of experiment: flow cytometry. Here is the method: OVCAR3, CAOV4, ID8 and the patient-derived 3.1937-07 cell lines were analysed on a BD LSRFortessa X-20 (BD Biosciences) flow cytometer for KRT14+ cell populations, using mAb AN-17 or a commercially available polyclonal antibody to KRT14 (Sigma SAB4501657).
as §1

B1: monoclonal anti-KRT14 antibody AN-17 (antibody, V domains shown)
VH: QVQLKESGPGLVAPSQSLSITCTVSGFSLSRYSVHWVRQPPGKGLEWLGMIWGGGSTDYNSALKSRLSISKDNSKSQVFLKMNSLQTDDTAMYYCARKDYGYSYFDYWGQGTTLTVSS
VL: DVLMTQTPLSLPVSLGDQASISCRSSQSIVHSNGNTYLEWYLQKPGQSPKLLIYKVSNRFSGVPDRFSGSGSGTDFTLKISRVEAEDLGVYYCFQGSHVPFTFGSGTKLEIKR
notes: the isotype-matched control used is mouse IgG1 kappa; Some assays used it conjugated to Alexa Fluor 488 or Alexa-647; also called mAb AN-17; mAb AN17
In the case of B1, the binding result in assay [1] and in assay [2] was “binds” throughout.

The values above are taken from patent US20220127341A1 (HUDSON INSTITUTE OF MEDICAL RESEARCH, published 2022).
